Several values for one entry are separate records, joined by “and”; a condition that tells them apart may be missing. Equal values may be shown once.

This assay deals with von Willebrand factor (vWF). The assay is described as follows: cell-based or functional assay.
Sequence of von Willebrand factor (vWF) (P04275 764-2813): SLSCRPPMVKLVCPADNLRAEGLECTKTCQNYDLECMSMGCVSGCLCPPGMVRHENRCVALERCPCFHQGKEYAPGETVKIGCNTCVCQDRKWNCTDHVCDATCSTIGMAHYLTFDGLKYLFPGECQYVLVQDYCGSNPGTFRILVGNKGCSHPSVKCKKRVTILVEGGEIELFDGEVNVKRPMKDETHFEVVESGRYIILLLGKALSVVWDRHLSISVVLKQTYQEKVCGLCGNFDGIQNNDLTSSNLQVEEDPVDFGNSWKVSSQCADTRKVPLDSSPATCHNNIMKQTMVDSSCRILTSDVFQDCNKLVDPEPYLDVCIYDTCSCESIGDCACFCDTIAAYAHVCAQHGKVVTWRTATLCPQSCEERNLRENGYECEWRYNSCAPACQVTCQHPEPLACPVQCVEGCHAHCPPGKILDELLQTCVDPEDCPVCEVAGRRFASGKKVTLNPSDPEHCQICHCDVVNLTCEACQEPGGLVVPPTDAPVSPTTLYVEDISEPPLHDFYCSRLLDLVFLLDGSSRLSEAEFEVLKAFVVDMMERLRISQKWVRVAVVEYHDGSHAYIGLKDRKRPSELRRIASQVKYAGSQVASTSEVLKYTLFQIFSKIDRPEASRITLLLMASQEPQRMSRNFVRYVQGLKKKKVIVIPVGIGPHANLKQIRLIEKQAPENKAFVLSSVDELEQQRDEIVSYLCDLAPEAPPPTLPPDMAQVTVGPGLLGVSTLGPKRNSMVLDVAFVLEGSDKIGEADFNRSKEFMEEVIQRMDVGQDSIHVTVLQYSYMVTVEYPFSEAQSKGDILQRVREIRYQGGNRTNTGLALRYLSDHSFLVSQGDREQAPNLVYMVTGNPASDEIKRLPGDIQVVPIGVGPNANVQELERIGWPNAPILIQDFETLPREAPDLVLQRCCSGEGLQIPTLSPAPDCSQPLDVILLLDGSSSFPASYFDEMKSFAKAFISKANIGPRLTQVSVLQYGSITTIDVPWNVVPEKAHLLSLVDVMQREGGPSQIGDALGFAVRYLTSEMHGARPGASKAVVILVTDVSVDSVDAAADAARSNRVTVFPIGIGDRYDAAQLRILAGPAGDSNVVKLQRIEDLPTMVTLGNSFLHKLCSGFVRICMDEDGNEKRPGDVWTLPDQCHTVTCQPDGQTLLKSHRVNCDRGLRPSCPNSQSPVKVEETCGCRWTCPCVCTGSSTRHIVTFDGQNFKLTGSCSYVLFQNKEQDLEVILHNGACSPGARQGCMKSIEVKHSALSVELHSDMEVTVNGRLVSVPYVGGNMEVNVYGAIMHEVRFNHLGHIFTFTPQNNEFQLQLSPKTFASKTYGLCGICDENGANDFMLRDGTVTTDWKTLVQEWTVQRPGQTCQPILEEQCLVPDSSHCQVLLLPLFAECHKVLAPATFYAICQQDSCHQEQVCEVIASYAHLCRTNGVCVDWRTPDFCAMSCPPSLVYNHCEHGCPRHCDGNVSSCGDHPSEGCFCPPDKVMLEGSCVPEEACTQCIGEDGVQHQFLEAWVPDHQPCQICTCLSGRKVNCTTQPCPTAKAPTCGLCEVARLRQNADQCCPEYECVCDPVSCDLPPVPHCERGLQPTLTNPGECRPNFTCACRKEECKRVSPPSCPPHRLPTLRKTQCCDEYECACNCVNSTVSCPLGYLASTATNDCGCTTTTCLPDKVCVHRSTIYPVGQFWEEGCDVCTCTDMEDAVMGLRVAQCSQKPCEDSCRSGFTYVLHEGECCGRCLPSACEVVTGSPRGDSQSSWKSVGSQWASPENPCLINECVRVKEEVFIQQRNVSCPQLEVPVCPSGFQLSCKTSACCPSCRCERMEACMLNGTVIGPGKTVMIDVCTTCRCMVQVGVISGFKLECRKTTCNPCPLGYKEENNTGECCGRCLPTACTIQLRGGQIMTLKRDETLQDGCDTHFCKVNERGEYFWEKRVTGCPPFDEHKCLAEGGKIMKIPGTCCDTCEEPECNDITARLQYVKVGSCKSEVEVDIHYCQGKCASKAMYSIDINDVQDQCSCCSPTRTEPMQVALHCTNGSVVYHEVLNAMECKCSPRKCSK

“CD42b (from UniProt P07359 17-652) (receptor)”: the platelets bound to the channel (chamber coated with 10 ug/mL vWF, flow rate 1600 s-1) was 62.3% and 75.8%.
